Source: PMC11532467

Target: Glycylhalorhodopsin from Salinarimonas soli (SsGHR) (Salinarimonas soli)
Assay: crystal structure

Substance: Glycylhalorhodopsin from Salinarimonas soli (SsGHR) (natural protein)
- stoichiometry N: 3
